Measurements as given in patent US7135170B2 (ZymoGenetics, Inc., priority 2002, dated 2006).

B1: IL-29: human IL-29 polypeptide, previous designation zcyto21 (SEQ ID NOS: 4, 20, 38) (protein, listed as Homo sapiens)
chain: MAAAWTVVLVTLVLGLAVAGPVPTSKPTTTGKGCHIGRFKSLSPQELASFKKARDALEESLKLKNWSCSSPVFPGNWDLRLLQVRERPVALEAELALTLKVLEAAAGPALEDVLDQPLHTLHHILSQLQACIQPQPTAGPRPRGRLHHWLHRLQEAPKKESAGCLEASVTFNLFRLLTRDLKYVADGNLCLRTSTHPEST
modifications: SIGNAL (1)...(19)
B2: IL-28A: human IL-28A polypeptide, previous designation zcyto20 (SEQ ID NOS: 2, 18, 36) (protein, listed as Homo sapiens)
chain: MKLDMTGDCTPVLVLMAAVLTVTGAVPVARLHGALPDARGCHIAQFKSLSPQELQAFKRAKDALEESLLLKDCRCHSRLFPRTWDLRQLQVRERPMALEAELALTLKVLEATADTDPALVDVLDQPLHTLHHILSQFRACIQPQPTAGPRTRGRLHHWLYRLQEAPKKESPGCLEASVTFNLFRLLTRDLNCVASGDLCV
modifications: SIGNAL (1)...(25)
B3: Zcyto24: previous designation for mouse IL-28A (SEQ ID NO: 8); mouse IL-28 (zcyto24) in b234 (protein, listed as Mus musculus)
chain: MKPETAGGHMLLLLLPLLLAAVLTRTQADPVPRATRLPVEAKDCHIAQFKSLSPKELQAFKKAKDAIEKRLLEKDLRCSSHLFPRAWDLKQLQVQERPKALQAEVALTLKVWENMTDSALATILGQPLHTLSHIHSQLQTCTQLQATAEPRSPSRRLSRWLHRLQEAQSKETPGCLEASVTSNLFRLLTRDLKCVANGDQCV

How the values were obtained:
[1] = test system: HSV-2; assay: HSV-2 cytopathic effect inhibition in Vero cells; type: cell-based, Herpes Simplex Virus-2; conditions: HSV-2, Vero cells
Description: The Vero cells are propagated in Dulbecco's modified essential medium (DMEM) containing phenol red with 10% horse serum, 1% glutamine and 1% penicillin-streptomycin, while the CPE inhibition assays are performed in DMEM without phenol red with 2% FBS, 1% glutamine and 1% Pen-Strep. On the day preceding the assays, cells were trypsinized (1% trypsin-EDTA), washed, counted and plated out at 10^4 cells/well in a 96-well flat-bottom BioCoat® plates (Fisher Scientific, Pittsburgh, Pa.) in a volume of 100 μl/well. The next morning, the medium was removed and a pre-titered aliquot of virus was added to the cells. The amount of virus used is the maximum dilution that would yield complete cell killing (>80% ) at the time of maximal CPE development. Cell viability is determined using a CellTiter 96® reagent (Promega) according to the manufacturer's protocol, using a Vmax plate reader (Molecular Devices, Sunnyvale, Calif.). Compounds are tested at six concentrations each, diluted in assay medium in a half-log series. Acyclovir was used as a positive control. Compounds are added at the time of viral infection. The average background and drug color-corrected data for percent CPE reduction and percent cell viability at each concentration are determined relative to controls and the IC50 calculated relative to the TC50.

[2] = test system: HHV-8; assay: HHV-8 replication in BCBL-1 cells (TaqMan PCR, CellTiter96); type: cell-based, Human Herpesvirus-8; conditions: six days
[3] = test system: EMCV; assay: EMCV antiviral assay (MTT dye-uptake) in HepG2 cells; type: cell-based, encephalomyocarditis virus; conditions: cytokine 24 hours before EMCV, OD570
[4] = test system: human marrow mononuclear cells; assay: Bone marrow expansion assay (Alamar Blue); type: cell-based; conditions: in the presence of IL-2 or IL-15
[5] = test system: BVDV; assay: BVDV cytopathic effect inhibition in MDBK bovine kidney cells; type: cell-based, bovine viral diarrhea virus
Description: The MDBK cells were propagated in Dulbecco's modified essential medium (DMEM) containing phenol red with 10% horse serum, 1% glutamine and 1% penicillin-streptomycin. CPE inhibition assays were performed in DMEM without phenol red with 2% FBS, 1% glutamine and 1% Pen-Strep. On the day preceding the assays, cells were trypsinized (1% trypsin-EDTA), washed, counted and plated out at 10^4 cells/well in a 96-well flat-bottom BioCoat® plates (Fisher Scientific, Pittsburgh, Pa.) in a volume of 100 μl/well. The next day, the medium was removed and a pre-titered aliquot of virus was added to the cells. The amount of virus was the maximum dilution that would yield complete cell killing (>80% ) at the time of maximal CPE development (day 7 for BVDV). Cell viability was determined using a CellTiter96® reagent (Promega) according to the manufacturer's protocol, using a Vmax plate reader (Molecular Devices, Sunnyvale, Calif.). Test samples were tested at six concentrations each, diluted in assay medium in a half-log series. IFNα and RIBAVIRIN® were used as positive controls. Test sample were added at the time of viral infection. The average background and sample color-corrected data for percent CPE reduction and percent cell viability at each concentration were determined relative to controls and the IC50 calculated relative to the TC50.

[6] = test system: ISG induction (OAS, Pkr, Mx1) in AML-12 cells; assay: ISG induction in the mouse liver cell line AML-12 (real-time PCR); type: cell-based; conditions: AML-12, 20 ng/ml, 48 hour time point
Description: AML-12 cells were plated in 6-well plates in complete DMEM media at a concentration of 2×10^6 cells/well. […] As a control, cells were either stimulated with mouse IFNα (positive control) or unstimulated (negative). […] RNA was isolated from cell pellets using RNAEasy-kit® (Qiagen, Valencia, Calif.). RNA was treated with DNase (Millipore, Billerica, Mass.) to clean RNA of any contaminating DNA. cDNA was generated using Perkin-Elmer RT mix. ISG gene induction was evaluated by real-time PCR using primers and probes specific for mouse OAS, Pkr and Mx1. To obtain quantitative data, HPRT real-time PCR was duplexed with ISG PCR. A standard curve was obtained using known amounts of RNA from IFN-stimulated mouse PBLs. All data are shown as expression relative to internal HPRT expression.
All data shown were expressed as fold relative to HPRT gene expression

[7] = test system: adenoviral vector, AdGFP; assay: Adenoviral vector (AdGFP) liver pathology in mice; conditions: for liver and inflammation scores (histology): vs the PBS-treated group
[8] = test system: ISG gene expression (OAS, Pkr, Mx1) in liver, spleen and blood; assay: ISG gene expression in liver, spleen and blood of injected mice (real-time PCR); type: in vivo, mouse; conditions: mice
Description: Mice were sacrificed at various time points (1 hr-48 hr). Spleens and livers were isolated from mice, and RNA was isolated. RNA was also isolated from the blood cells. The cells were pelleted and RNA isolated from pellets using RNAEasy®-kit (Qiagen). RNA was treated with DNase (Amicon) to rid RNA of any contaminating DNA. cDNA was generated using Perkin-Elmer RT mix (Perkin-Elmer). ISG gene induction was measured by real-time PCR using primers and probes specific for mouse OAS, Pkr and Mx1. To obtain quantitative data, HPRT real-time PCR was duplexed with ISG PCR. A standard curve was calculated using known amounts of IFN-stimulated mouse PBLs. All data are shown as expression relative to internal HPRT expression.
Results shown are fold expression relative to HPRT gene expression. […] The data shown is the average expression from 5 different animals/group.
Mice were injected with 100 μg of proteins i.v. Data shown is fold expression over HPRT expression from livers of mice. Similar data was obtained from blood and spleens of mice.

[9] = test system: ISGs OAS, Pkr and Mx1 in spleens; assay: ISG expression in spleens of Eu-lck human IL-29 transgenic mice; type: in vivo, mouse; conditions: spleen of IL-29 Tg mice
Description: This promoter is active in T cells and B cells. Transgenic mice and their non-transgenic littermates (n=2/gp) were sacrificed at about 10 weeks of age. Spleens of mice were isolated. RNA was isolated from cell pellets using RNAEasy-kit® (Qiagen). RNA was treated with DNase to clean RNA of any contaminating DNA. cDNA was generated using Perkin-Elmer RT® mix. ISG gene induction was evaluated by real-time PCR using primers and probes (5′ FAM, 3′ NFQ) specific for mouse OAS, Pkr and Mx1. To obtain quantitative data, HPRT real-time PCR was duplexed with ISG PCR. Furthermore, a standard curve was obtained using known amounts of IFN stimulated mouse PBLs. All data are shown as expression relative to internal HPRT expression.
All data shown are fold expression relative to HPRT gene expression. The average expression in two mice is shown

[10] = test system: OAS activity; assay: OAS activity in serum and plasma of mice (OAS radioimmunoassay); type: in vivo, mouse; conditions: i.v., 10 μg–250 μg
Description: Serum and plasma were isolated from mice at varying time points, and OAS activity was measured using the OAS radioimmunoassay (RIA) kit from Eiken Chemicals (Tokyo, Japan).

[11] = test system: ISRE signaling in HepG2 cells; assay: ISRE-luciferase signal transduction reporter assay in HepG2 cells; type: cell-based, human; conditions: 100 ng/ml ligand, 4-hour; RLU over medium alone
[12] = test system: Mouse B cells; assay: Mouse B cell 3H-thymidine incorporation; type: cell-based
Description: Mouse B cells were isolated from 2 Balb/C spleens (7 months old) by depleting CD43+ cells using MACS magnetic beads. Purified B cells were cultured in vitro with LPS, anti-IgM or anti-CD40 monoclonal antibodies. Mouse IL-28 or mouse IFNα was added to the cultures and ^3H-thymidine was added at 48 hrs. and ^3H-thymidine incorporation was measured after 72 hrs. culture.

[13] = average of two mice (Non-Tg 4.5)

Row | Molecule | antiviral activity [1] | IC50, extracellular HHV-8 DNA [2] [µg/mL] | EC50 [3] [µg/mL] | expansion of bone marrow cells [4] | IC50, inhibition of cell death induced by BVDV [5] [µg/mL] | Mx1 expression [6] | OAS expression [6] | PkR expression [6] | liver histology: sinusoidal cells, mitotic figures, changes in the hepatocytes ([7]; vs the PBS treatment group) | liver and inflammation scores (histology) [7] | time of peak expression of ISGs after injection [8] [h] | Mx1 expression ([9]; average of two mice (Non-Tg 3.5)) | OAS expression [9, 13] | PkR expression [9, 13] | OAS activity in the serum and plasma of mice [10] | Fold Inductn. of ISRE signaling [11] [fold] | 3H-thymidine incorporation by mouse B cells ([12]; stimulated with LPS or anti-IgM, IFNα 10 ng/ml, mouse IL-28 any concentration incl. 1000 ng/ml) | 3H thymidine incorporation by mouse B cells ([12]; stimulated with anti-CD40 MAb)
1 | IFNα | no antiviral activity |  |  |  |  |  |  |  |  |  |  |  |  |  |  |  |  | 
2 | B1 |  | 6.5 | 0.0006 | small inhibition | 0.19 | 0.07 fold relative to HPRT gene expression | 0.04 fold relative to HPRT gene expression | 0.02 fold relative to HPRT gene expression | less proliferation of sinusoidal cells, fewer mitotic figures and fewer changes in the hepatocytes | lower liver and inflammation scores | 1 to 6 | 21 fold expression relative to HPRT gene expression | 12 fold expression relative to HPRT gene expression | 8 fold expression relative to HPRT gene expression |  |  |  | 
3 | B2 |  | 1 |  |  | 0.02 | 0.06 fold relative to HPRT gene expression | 0.04 fold relative to HPRT gene expression | 0.02 fold relative to HPRT gene expression |  |  |  |  |  |  | induced OAS activity |  |  | 
4 | B3 |  |  |  |  |  | 0.08 fold relative to HPRT gene expression | 0.04 fold relative to HPRT gene expression | 0.02 fold relative to HPRT gene expression |  | lower liver and inflammation scores |  |  |  |  |  | 4.7 | did not inhibit | increased
